From patent US20140072613A1, “Compositions and Methods for Treating Cutaneous Scarring” (priority 2012, published 2014)

Molecular target: T1, eEF-2K(h) (human) (UniProt O00418)
T1 sequence (looked up): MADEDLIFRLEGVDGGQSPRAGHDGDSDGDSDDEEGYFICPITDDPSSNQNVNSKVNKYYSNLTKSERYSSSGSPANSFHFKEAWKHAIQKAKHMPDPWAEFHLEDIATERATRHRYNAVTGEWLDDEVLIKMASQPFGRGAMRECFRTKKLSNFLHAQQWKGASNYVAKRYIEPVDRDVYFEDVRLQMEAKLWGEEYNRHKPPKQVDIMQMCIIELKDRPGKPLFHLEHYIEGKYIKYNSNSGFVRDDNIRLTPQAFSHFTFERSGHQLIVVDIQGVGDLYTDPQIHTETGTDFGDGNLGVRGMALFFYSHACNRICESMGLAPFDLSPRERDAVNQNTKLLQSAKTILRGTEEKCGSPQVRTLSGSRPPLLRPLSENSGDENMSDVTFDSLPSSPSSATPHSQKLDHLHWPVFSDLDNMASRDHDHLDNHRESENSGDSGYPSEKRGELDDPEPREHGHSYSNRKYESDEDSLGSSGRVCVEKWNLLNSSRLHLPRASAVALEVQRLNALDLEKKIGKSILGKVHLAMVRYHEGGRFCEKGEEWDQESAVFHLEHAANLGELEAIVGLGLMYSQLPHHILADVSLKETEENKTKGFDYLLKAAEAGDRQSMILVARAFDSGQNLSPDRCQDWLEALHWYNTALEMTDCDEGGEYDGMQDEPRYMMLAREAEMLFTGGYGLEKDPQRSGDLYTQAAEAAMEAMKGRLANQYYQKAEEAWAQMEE
Assay: cell-based or functional assay

## MMI-0500 (peptide)
  % activity, 100 µM: 43%
